The values that follow are results of earlier work, collected in patent US7718413B2, “Glycosylation variants of BACE” (Elan Pharmaceuticals, Inc., priority 2003, dated 2010).

Non-standard residues stand in square brackets, D forms with d. No end group written: not given here. Sta = CC(C)C[C@H](N)[C@@H](O)CC(=O)O

The target of this data set is β-secretase (Homo sapiens, UniProt P56817). The following applies: previous studies.
Chain of β-secretase (P56817 46-501): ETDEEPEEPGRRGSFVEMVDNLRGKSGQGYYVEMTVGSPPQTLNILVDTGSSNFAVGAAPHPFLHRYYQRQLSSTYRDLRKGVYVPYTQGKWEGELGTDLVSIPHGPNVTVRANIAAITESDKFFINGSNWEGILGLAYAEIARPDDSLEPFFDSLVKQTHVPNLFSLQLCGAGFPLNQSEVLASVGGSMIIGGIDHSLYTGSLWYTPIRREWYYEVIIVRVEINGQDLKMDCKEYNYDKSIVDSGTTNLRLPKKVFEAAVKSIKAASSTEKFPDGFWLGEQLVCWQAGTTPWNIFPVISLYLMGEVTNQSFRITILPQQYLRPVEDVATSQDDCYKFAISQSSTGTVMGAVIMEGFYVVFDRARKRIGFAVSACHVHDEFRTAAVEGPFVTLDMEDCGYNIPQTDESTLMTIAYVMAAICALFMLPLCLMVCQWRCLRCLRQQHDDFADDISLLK

On to “KTEEISEVN[sta]VAEF (KTEEISEVN[Sta]VAEF) [P10-P4′staD→V]”, for which the “inhibitor of the enzyme (potency in words)” value was “reasonably potent inhibitor”.
